T1: Hfq-CTR peptide (Escherichia coli, UniProt P0A6X3)
T1 chain: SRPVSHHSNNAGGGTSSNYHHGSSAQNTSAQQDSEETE


How the values were obtained:
Hfq-CTR peptide [1] = target: T1, Hfq-CTR peptide; test: EMSA; quadruplex annealed in water without salt; EMSA: quadruplex prepared in water (95 C 5 min, slow cooling), 20 min at room temperature; native 4-20% polyacrylamide gel in TAE pH 8.0 (40 mM Tris-acetate, 1); settings: parallel G-quadruplex
Hfq-CTR peptide [2] = target: T1, Hfq-CTR peptide; test: EMSA?; method not stated for dG7; EMSA: quadruplex prepared in water (95 C 5 min, slow cooling), 20 min at room temperature; native 4-20% polyacrylamide gel in TAE pH 8.0 (40 mM Tris-acetate, 1); settings: parallel G-quadruplex

Row | Binder | Kd (Hfq-CTR peptide [1]) [nM] | Kd (Hfq-CTR peptide [2]) [nM]
1 | GGGTGGGTGGGTGGGT (structured_DNA) [d(G3T)4] | 1060 ± 74 | 
2 | GGGGGGG (structured_DNA) [dG7] |  | 981 ± 96
